The results in this text go back to paper PMC6713507.

In this experiment the target is catalytic α subunit of the cAMP-dependent protein kinase A, Cushing's syndrome mutant L205R (PKA-C^L205R) (human). Kind of experiment: ITC. (In general: ITC needs no label: the signal is the heat of the interaction.)

In general, Kd refers to the free concentration of one partner at which half of the binding sites on the other are occupied at equilibrium, for simple one-to-one binding. A higher Kd goes with a looser complex. The substance “VPS36-derived peptide (vacuolar protein-sorting–associated protein 36, residues 115 to 130)” displayed a dissociation constant Kd of 3.5 µM.
